Data reported in patent US6960440 (TRUSTES OF COLUMBIA UNIVERSITY IN THE CITY OF NEW YORK, dated 2005).

Molecular target: the molecule itself
Test: SDS-PAGE and Western blot of NADE overexpressed in 293T cells, wild type against Cys-to-Ser mutants

B1: Myc-tagged mouse NADE expressed in 293T cells (pcDNA3.1(-)Myc-HisA/NADE) (other, not shown: small tags and cut ends)
chain: MANVHQENEEMEQPLQNGEEDRPVGGGEGHQPAGNNNNNNHNHNHNHHRRGQARRLAPNFRWAIPNRQMNDGLGGDGDDMEMFMEEMREIRRKLRELQLRNCLRILMGELSNHHDHHDEFCLMP
notes: It runs as 22 kDa and 44 kDa bands; also called Myc-tagged NADE; wild type NADE
B1: binds.
